Data as given in patent publication US20230151068A1.

Molecular target: biotinylated His-Avi-TEAD (194-411) (UniProt P28347)
Assay: SSM screen, enrichment after two rounds of sorting

| enrichment score | Binder |
| --- | --- |
| -1.5 | GSPDEYKERAKECCKKGDIQCCLRYFEESGDPNVMLICLFCP (designed binder) [I05K variant of SEQ ID NO: 1] |
| -6 | GSPDEYIERQKECCKKGDIQCCLRYFEESGDPNVMLICLFCP (designed binder) [A08Q variant of SEQ ID NO: 1] |
| -9.2 | GSPDEYIERNKECCKKGDIQCCLRYFEESGDPNVMLICLFCP (designed binder) [A08N variant of SEQ ID NO: 1] |
| -3.56 | GSPDEYIERAMECCKKGDIQCCLRYFEESGDPNVMLICLFCP (designed binder) [K09M variant of SEQ ID NO: 1] |
| -0.57 | GSTDEYIERAKECCKKGDIQCCLRYFEESGDPNVMLICLFCP (designed binder) [P01T variant of SEQ ID NO: 1] |
| -0.48 | GSPDEYIEQAKECCKKGDIQCCLRYFEESGDPNVMLICLFCP (designed binder) [R07Q variant of SEQ ID NO: 1] |
| 0.34 | GSPDEYIENAKECCKKGDIQCCLRYFEESGDPNVMLICLFCP (designed binder) [R07N variant of SEQ ID NO: 1] |
| -0.34 | GSPDEYIERAKMCCKKGDIQCCLRYFEESGDPNVMLICLFCP (designed binder) [E10M variant of SEQ ID NO: 1] |
| -2.04 | GSPDEYIMRAKECCKKGDIQCCLRYFEESGDPNVMLICLFCP (designed binder) [E06M variant of SEQ ID NO: 1] |
| -0.94 | GSPDERIERAKECCKKGDIQCCLRYFEESGDPNVMLICLFCP (designed binder) [Y04R variant of SEQ ID NO: 1] |
| -1.3 | GSPDEYIERARECCKKGDIQCCLRYFEESGDPNVMLICLFCP (designed binder) [K09R variant of SEQ ID NO: 1] |
| -1.78 | GSPDEYIRRAKECCKKGDIQCCLRYFEESGDPNVMLICLFCP (designed binder) [E06R variant of SEQ ID NO: 1] |
| -2.1 | GSRDEYIERAKECCKKGDIQCCLRYFEESGDPNVMLICLFCP (designed binder) [P01R variant of SEQ ID NO: 1] |
| -1.86 | GSPMEYIERAKECCKKGDIQCCLRYFEESGDPNVMLICLFCP (designed binder) [D02M variant of SEQ ID NO: 1] |
| -1.34 | GSPDEYNERAKECCKKGDIQCCLRYFEESGDPNVMLICLFCP (designed binder) [I05N variant of SEQ ID NO: 1] |
| -0.91 | GSPDEYIERASECCKKGDIQCCLRYFEESGDPNVMLICLFCP (designed binder) [K09S variant of SEQ ID NO: 1] |
| -0.68 | GSPDEMIERAKECCKKGDIQCCLRYFEESGDPNVMLICLFCP (designed binder) [Y04M variant of SEQ ID NO: 1] |
| -1.87 | GSPDEYMERAKECCKKGDIQCCLRYFEESGDPNVMLICLFCP (designed binder) [I05M variant of SEQ ID NO: 1] |
| -1.94 | GSPDEYIERAKQCCKKGDIQCCLRYFEESGDPNVMLICLFCP (designed binder) [E10Q variant of SEQ ID NO: 1] |

| enrichment score | Binder |
| --- | --- |
| -0.2 | GSPQEYIERAKECCKKGDIQCCLRYFEESGDPNVMLICLFCP (designed binder) [D02Q variant of SEQ ID NO: 1] |
| -1.02 | GSMDEYIERAKECCKKGDIQCCLRYFEESGDPNVMLICLFCP (designed binder) [P01M variant of SEQ ID NO: 1] |
| 0.29 | GSPDEQIERAKECCKKGDIQCCLRYFEESGDPNVMLICLFCP (designed binder) [Y04Q variant of SEQ ID NO: 1] |
| -1.09 | GSPDEYISRAKECCKKGDIQCCLRYFEESGDPNVMLICLFCP (designed binder) [E06S variant of SEQ ID NO: 1] |
| -1.06 | GSPDEYIEMAKECCKKGDIQCCLRYFEESGDPNVMLICLFCP (designed binder) [R07M variant of SEQ ID NO: 1] |
| 0.58 | GSPDNYIERAKECCKKGDIQCCLRYFEESGDPNVMLICLFCP (designed binder) [E03N variant of SEQ ID NO: 1] |
| -2.47 | GSPDEYIERAKSCCKKGDIQCCLRYFEESGDPNVMLICLFCP (designed binder) [E10S variant of SEQ ID NO: 1] |
| -10.1 | GSPDEYIERMKECCKKGDIQCCLRYFEESGDPNVMLICLFCP (designed binder) [A08M variant of SEQ ID NO: 1] |
| -0.41 | GSPDSYIERAKECCKKGDIQCCLRYFEESGDPNVMLICLFCP (designed binder) [E03S variant of SEQ ID NO: 1] |
| -0.45 | GSPDEYIERAKNCCKKGDIQCCLRYFEESGDPNVMLICLFCP (designed binder) [E10N variant of SEQ ID NO: 1] |
| 2.57 | GSPDMYIERAKECCKKGDIQCCLRYFEESGDPNVMLICLFCP (designed binder) [E03M variant of SEQ ID NO: 1] |
| 0.04 | GSPDENIERAKECCKKGDIQCCLRYFEESGDPNVMLICLFCP (designed binder) [Y04N variant of SEQ ID NO: 1] |
| -2.3 | GSPDEYIERAKKCCKKGDIQCCLRYFEESGDPNVMLICLFCP (designed binder) [E10K variant of SEQ ID NO: 1] |
| -4.73 | GSPDEYIERKKECCKKGDIQCCLRYFEESGDPNVMLICLFCP (designed binder) [A08K variant of SEQ ID NO: 1] |
| -0.74 | GSPDESIERAKECCKKGDIQCCLRYFEESGDPNVMLICLFCP (designed binder) [Y04S variant of SEQ ID NO: 1] |
| -0.52 | GSPTEYIERAKECCKKGDIQCCLRYFEESGDPNVMLICLFCP (designed binder) [D02T variant of SEQ ID NO: 1] |
| -5.84 | GSPDEYIERRKECCKKGDIQCCLRYFEESGDPNVMLICLFCP (designed binder) [A08R variant of SEQ ID NO: 1] |
| 1.1 | GSPDEYIERAQECCKKGDIQCCLRYFEESGDPNVMLICLFCP (designed binder) [K09Q variant of SEQ ID NO: 1] |
| -0.82 | GSPDEYINRAKECCKKGDIQCCLRYFEESGDPNVMLICLFCP (designed binder) [E06N variant of SEQ ID NO: 1] |

| enrichment score | Binder |
| --- | --- |
| -2.84 | GSPDEYIERAKRCCKKGDIQCCLRYFEESGDPNVMLICLFCP (designed binder) [E10R variant of SEQ ID NO: 1] |
| -1.13 | GSPDEYIKRAKECCKKGDIQCCLRYFEESGDPNVMLICLFCP (designed binder) [E06K variant of SEQ ID NO: 1] |
| -3.27 | GSPDEYRERAKECCKKGDIQCCLRYFEESGDPNVMLICLFCP (designed binder) [I05R variant of SEQ ID NO: 1] |
| -0.84 | GSQDEYIERAKECCKKGDIQCCLRYFEESGDPNVMLICLFCP (designed binder) [P01Q variant of SEQ ID NO: 1] |
| -2.79 | GSPDEYIERSKECCKKGDIQCCLRYFEESGDPNVMLICLFCP (designed binder) [A08S variant of SEQ ID NO: 1] |
| -7.12 | GSPREYIERAKECCKKGDIQCCLRYFEESGDPNVMLICLFCP (designed binder) [D02R variant of SEQ ID NO: 1] |
| -0.16 | GSPNEYIERAKECCKKGDIQCCLRYFEESGDPNVMLICLFCP (designed binder) [D02N variant of SEQ ID NO: 1] |
| -2.04 | GSPDEYSERAKECCKKGDIQCCLRYFEESGDPNVMLICLFCP (designed binder) [I05S variant of SEQ ID NO: 1] |
| -1.23 | GSPDEYQERAKECCKKGDIQCCLRYFEESGDPNVMLICLFCP (designed binder) [I05Q variant of SEQ ID NO: 1] |
| -2.41 | GSPDEYIQRAKECCKKGDIQCCLRYFEESGDPNVMLICLFCP (designed binder) [E06Q variant of SEQ ID NO: 1] |
| 0.47 | GSPDEYIEKAKECCKKGDIQCCLRYFEESGDPNVMLICLFCP (designed binder) [R07K variant of SEQ ID NO: 1] |
| -0.49 | GSNDEYIERAKECCKKGDIQCCLRYFEESGDPNVMLICLFCP (designed binder) [P01N variant of SEQ ID NO: 1] |
| 3.31 | GSPDEYIERANECCKKGDIQCCLRYFEESGDPNVMLICLFCP (designed binder) [K09N variant of SEQ ID NO: 1] |
| -1.81 | GSPDRYIERAKECCKKGDIQCCLRYFEESGDPNVMLICLFCP (designed binder) [E03R variant of SEQ ID NO: 1] |
| -1.35 | GSPDQYIERAKECCKKGDIQCCLRYFEESGDPNVMLICLFCP (designed binder) [E03Q variant of SEQ ID NO: 1] |
| 0.13 | GSSDEYIERAKECCKKGDIQCCLRYFEESGDPNVMLICLFCP (designed binder) [P01S variant of SEQ ID NO: 1] |
| 0.31 | GSPDEYIESAKECCKKGDIQCCLRYFEESGDPNVMLICLFCP (designed binder) [R07S variant of SEQ ID NO: 1] |
| -1.01 | GSPSEYIERAKECCKKGDIQCCLRYFEESGDPNVMLICLFCP (designed binder) [D02S variant of SEQ ID NO: 1] |
